Patent US20220112288A1 (published 2022)

Biological target: T1, Recombinant human CD4 (R&D Systems, Cat. 10327-CD) (human, UniProt P01730 26-390, limits assumed)
T1 construct: Bought protein; also called huCD4
Experiment: BLI (Octet Red384), purified antibody on anti-mouse Fc sensors, human CD4 100/50/25 nM, global 1:1 fit;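 also: antibodies loaded at 10 µg/mL, curves fitted across association and dissociation phases, with an unrelated mouse-derived antibody serving as internal reference control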
Method: A three-point, 1:1 serial dilution of human and rhesus CD4 proteins were prepared using kinetics buffer as diluent. […] 10 mM Glycine pH 1.7, and kinetics buffer were used to regenerate the AMC biosensors. […] An irrelevant antibody derived from the Alivamab mouse was included in the assay as an internal reference control.
After completion of the kinetic characterization assays, data was analyzed in Forte Bio analysis software v11. The Y-axis was aligned to the final 5 seconds of the baseline step, with inter-step alignment to the dissociation step. Savitzky-Golay Filtering was used to smooth the data. Kinetic curves were fit to both association and dissociation steps using a 1:1 stoichiometry model.

Binder | Kd [nM] | Response | koff [s⁻¹] | kon [M⁻¹ s⁻¹]
75110_05L07A (antibody, V domains shown, Tested as antibody purified from AlivaMab Mouse Kappa hybridoma (human V regions, kappa light chain, mouse Fc captured by anti-mouse Fc sensors)) VH: EVQLVESGGGLVQPGGSLRLSCAASGFTFSSYWMSWVRQAPGKGLEWVANINQDGSDKYYVDSVKGRFTISRDNVKNSLYLQINSLRAEDTAVYYCAREGGQWLTLDYWGQGTLVTVSS VL: not shown | 15 | 0.28 | 0.0016 | 110000
75110_11D03A (antibody, V domains shown, Tested as antibody purified from AlivaMab Mouse Kappa hybridoma (human V regions, kappa light chain, mouse Fc captured by anti-mouse Fc sensors)) VH: EVQLVESGGGLVQPGGSLRLSCAASGFTFSSYWMSWVRQAPGKGLEWVANINQDGNEKYYVDSVKGRFTISRDNAKNSLFLQMNSLRAEDTAVYYCAREGGQWLALDYWGQGALVTVSS VL: DIQMTQSPSSVSASVGDRVTITCRASQGISSWLAWYQQKPGKAPKFLISGASSLQSGVPSRFSGSGSGTDFTLTISSLQPEDFATYYCQQANSFPWTFGQGTKVEIK | 3.2 | 0.09 | 0.0013 | 420000
75110_08H11A (antibody, V domains shown, Tested as antibody purified from AlivaMab Mouse Kappa hybridoma (human V regions, kappa light chain, mouse Fc captured by anti-mouse Fc sensors); also called 75110_08H1lA) VH: EVQLVESGGGLVQPGGSLRLSCAASGFTFSSYDMHWVRQATGKGLEWVSTIGTAGDTYYPGSVKGRFTISRENAKNSLYLQMNSLRAGDTAVYYCARGGYSYYGMDVWGQGTTVTVSS VL: EIVLTQSPGTLSLSPGERATLSCGASQSVSSTYLAWYQQKPGQAPRLLIYGASSRATGIPDRFSGSGSGTDFTLTISRLEPEDFAVYYCQQFGSSPFTFGPGTKVDIK | 26 | 0.04 | 3.6e-05 | 1400
75110_13C07A (antibody, V domains shown, Tested as antibody purified from AlivaMab Mouse Kappa hybridoma (human V regions, kappa light chain, mouse Fc captured by anti-mouse Fc sensors)) VH: EVQLVESGGVLVQPGGSLRLSCAASGFTFSNYDMHWVRQATGKGLEWVSTIGTAGDTYYPGSVKGRFTLSRENAKNSLYLQMHSLRAGDTAVYYCARGAYGYYGMDVWGQGTTVTVSS VL: not shown | 1.7 | 0.11 | 0.00016 | 92000
75110_08H06A (antibody, V domains shown, Tested as antibody purified from AlivaMab Mouse Kappa hybridoma (human V regions, kappa light chain, mouse Fc captured by anti-mouse Fc sensors)) VH: EVQLVESGGGLVQPGGSLRLSCAASGFTFSNYDMHWVRQATGKGLEWVSTIGTAGDTYYPGSVKGRFTISRENAKNSLYLQMNSLRAGDTAVYYCARGGYDYYGMDVWGQGTTVTVSS VL: EIVLTQSPGTLSLSPGERATLSCRASQSITSIYLAWYRQKPGQAPRLLIYGASSRATGIPDRFSGSGSGTDFTLTISRLEPEDFAVYYCQQYGSSPFTFGPGTKVDIK | 11 | 0.04 | 0.00043 | 39000
75110_10O16A (antibody, V domains shown, Tested as antibody purified from AlivaMab Mouse Kappa hybridoma (human V regions, kappa light chain, mouse Fc captured by anti-mouse Fc sensors); also called 75110_10016A) VH: EVQLVESGGGLVQPGGSLRLSCAASGFTFSNSDMHWVRQATGKGLEWVSTIGTAGDTYYPGSVKGRFTISRENAKNSLYLQMNSLRAGDTAVYYCARGGLYYYGMDVWGQGTTVTVSS VL: ENVLTQSPGTLSLSPGERATLSCRASQSVSSSYLAWYQQKPGQAPRLLIYGASSRATGIPDRFSGSGSGTDFTLTISRLEPEDFAVYYCHQFGSSPFTFGPGTKVDIK | 2.4 | 0.08 | 0.00035 | 140000
75110_10N21A (antibody, V domains shown, Tested as antibody purified from AlivaMab Mouse Kappa hybridoma (human V regions, kappa light chain, mouse Fc captured by anti-mouse Fc sensors)) VH: EVQLVESGGGLVQPGGSLRLSCAASGFTFSSYDMHWVRQVTGKGLEWVSTIGTAGDTYYPGSVKGRFTISRENAKNSLYLQMNSLRAGDTAVYYCARGGYYYYGMDVWGQGTTVTVSS VL: EIVLTQSPGTLSLSPGERATLSCRASQSFISSYLAWYQQKPGQAPRLLIYGASSRATGIPDRFSGSGSGTDFTLTISRLDPEDFAVYYCQQSGNSPFTFGPGTKVDVK | 0.59 | 0.09 | 3.2e-05 | 55000
75110_05K11A (antibody, V domains shown, Tested as antibody purified from AlivaMab Mouse Kappa hybridoma (human V regions, kappa light chain, mouse Fc captured by anti-mouse Fc sensors)) VH: EVQLVESGGGLVQPGGSLRLSCAASGFTFSSYDMHWVRQPTGKGLEWVSTIGTAGDTYYPASVKGRFTISRENAKNSLYLQMNSLRAGDTAVYYCARGGFYYYGMDVWGQGTTVTVSS VL: EIVLTQSPGTLSLSPGERVTLSCRASQSVSNTYLAWYQQKPGQAPRLLIYGASSRATGIPDRFSGSGSGTDFTLTISRLEPEDFVVYYCQQHGSSPFTFGPGTKVDIK | < 0.001 | 0.04 | < 1e-07 | 36000
75110_07E04A (antibody, V domains shown, Tested as antibody purified from AlivaMab Mouse Kappa hybridoma (human V regions, kappa light chain, mouse Fc captured by anti-mouse Fc sensors)) VH: EVQLVESGGGLVQPGGSLRLSCAVSGFTFSSYDMHWVRQATGKGLEWVSTIGTAGDTYYPGSVKGRFTISRENAKKFLYLQMNSLRAGDTAVYYCARGGYYYYGMDVWGQGTTVTVSS VL: not shown | < 0.001 | 0.07 | < 1e-07 | 35000
75110_10L22A (antibody, V domains shown, Tested as antibody purified from AlivaMab Mouse Kappa hybridoma (human V regions, kappa light chain, mouse Fc captured by anti-mouse Fc sensors)) VH: EVQLVESGGGLVQPGGSLRLSCAASGFTFSSYDMHWVRQATGKGLEWVSTIGTAGDTYYPGSVKGRFTISRENAKNSLYLQMNGLRAGDTAVYYCARGNYFYYGVDVWGQGTTVTVSS VL: not shown | 12 | 0.03 | 0.00045 | 37000
75110_14H13A (antibody, V domains shown, Tested as antibody purified from AlivaMab Mouse Kappa hybridoma (human V regions, kappa light chain, mouse Fc captured by anti-mouse Fc sensors)) VH: EVQLVESGGGLVQPGGSLRLSCAASGFTFSNYDMHWVRQATGKGLEWVSTIGTAGDTYYPGSVKGRFTISRKNAKNSLYLQMISLRAGDTAVYYCARGGDYYYGMDVWGQGTTVTVSS VL: not shown | 2.1 | 0.08 | 0.00011 | 54000
75110_08K12A (antibody, V domains shown, Tested as antibody purified from AlivaMab Mouse Kappa hybridoma (human V regions, kappa light chain, mouse Fc captured by anti-mouse Fc sensors)) VH: EVQLVESGGGLVQPGGSLRLSCAASGFTFSSYDMHWVRQATGKGLEWVSTIGTAGDTYYPGSVKGRFTISRENAENSLYLQMNSLRAGDTALYYCARGDYYYYGMDVWGQGTTVTVSS VL: EIVLTQSPGTLSLSPGERATLSCRASQSVSSTYLAWYQQKPGQAPRLLIYGASNRATGIPDRFSGSGSGTDFTLTISRLEPEDFAVYYCQQFGTSPFTFGPGTKVDIK | 220 | 0.05 | 0.00022 | –
75110_06C16A (antibody, V domains shown, Tested as antibody purified from AlivaMab Mouse Kappa hybridoma (human V regions, kappa light chain, mouse Fc captured by anti-mouse Fc sensors)) VH: QVQLQESGPGLVTPSETLSLSCTVSGGSISDYYWSWIRQPGGKGLEWIGRIYSSGSTNYNPSLKSRVTMSVDTSKNQFSLKLSSVTAADTAVYFCARDREDYYYYGMDVWGQGTTVTVSS VL: DIQMTQSPSSLSASVGDRVTITCQASHDISNYLNWYQQKPGKAPKLLIYAASNLETGVPSRFSGSGSGTDFSFTISSLQPEDIATYYCQQYDHLPLTFGGGTKVEIK | 16 | 0.15 | 0.0012 | 75000
75110_08D24A (antibody, V domains shown, Tested as antibody purified from AlivaMab Mouse Kappa hybridoma (human V regions, kappa light chain, mouse Fc captured by anti-mouse Fc sensors)) VH: QVQLQESGPGLVKPSETLSLTCTVSGGSISGFYWSWIRQPAGKGLEWIGRIYTSENTNYNPSLKSRVTMSVDTSKNQFSLKLSSVTAADTAVYYCARDREGYYYYGMDVWGQGTTVTVSS VL: DIQMTQSPSSLSASVGDRVTITCQASQDISNYLNWYQQKPGKAPKLLIYAASNLETGVPSRFSGSGSGTDFTFTISSLQPEDIATYYCQQYDSLPITFGQGTRLEIK | 22 | 0.11 | 0.00027 | 12000
75110_06K03A (antibody, V domains shown, Tested as antibody purified from AlivaMab Mouse Kappa hybridoma (human V regions, kappa light chain, mouse Fc captured by anti-mouse Fc sensors)) VH: QVQLQESGPGLVKPSETLSLTCTVSGGSISTYYWSWIRQPAGKGLEWIGRINTSGSTTYNPSLKSRVTMSVDTSKNQFSLKLSSVTAADTAVYYCARELERYYYYGMDVWGQGTTVTVSS VL: DIQMTQSPSSLSASVGDRVTITCQASQDISNYLNWYQQKPGKAPKLLIYYASILETGVPSRFSGSGSGTDFTFTISSLQPEDIATYYCQQYDSLPLTFGGGTKVEIK | 2.2 | 0.11 | 3.6e-05 | 16000
75110_06G04A (antibody, V domains shown, Tested as antibody purified from AlivaMab Mouse Kappa hybridoma (human V regions, kappa light chain, mouse Fc captured by anti-mouse Fc sensors)) VH: QVQLLESGPGLVKPSETLSLTCTVSGGSISSYYWSWIRQPAGKGLEWIGRIYISGSTNYNPSLKSRVTMSIDTSENQFSLNLSSVTAADTAVYYCARELERPYYYGMDVWGQGTTVTVSS VL: DIQMTQSPSSLSASVGDRVTITCQASQDISNYLNWYQQKPGKAPKLLIYNASTLETGVPSRFSGSGSGTDFTFTISSLQPEDIATYYCQQYDNLPLTFGGGTKVEFK | 6 | 0.07 | 0.0015 | 250000
75110_06E14A (antibody, V domains shown, Tested as antibody purified from AlivaMab Mouse Kappa hybridoma (human V regions, kappa light chain, mouse Fc captured by anti-mouse Fc sensors)) VH: QVQLQESGPGLVKPSETLSLTCTVSGGSISNYFWSWIRQPAGKGLEWIGRIYSSGNTNYNPSLKSRVTMSVDTSKNQFSLKLSSVTAADTAVYYCARDREDYYYYGMDVWGQGTTVTVSS VL: DIQMTQSPSSLSASVGDRVTITCQASQDISNYLNWYQQKPGKAPKLLIYGASILETGVPSRFTGSGSGTDFTFTISSLQPEDIATYYCQQYDSLPITFGQGTRLEIK | 14 | 0.11 | 0.00026 | 18000
75110_08M20A (antibody, V domains shown, Tested as antibody purified from AlivaMab Mouse Kappa hybridoma (human V regions, kappa light chain, mouse Fc captured by anti-mouse Fc sensors)) VH: QVQLQESDPGLVKPSETLSLTCTVSGGSISSYYWSWIRQPAGKGLEWIGRIYASGSTNYNPSLKSRVTMSVDTSKNQFSLKLSSVTAADTAVYYCARDREGYYYYGMDVWGQGTTVTVSS VL: DIQMTQSPSSLSASVGDRVTITCQASQDISKYLNWYQQKPGKAPNLLIYAASNLETGVPSRFSGSGSGTDFTFTISSLQPEDIAAYYCQQYDSLPITFGQGTRLEIK | 9.2 | 0.16 | 0.00091 | 99000
75110_06D16A (antibody, V domains shown, Tested as antibody purified from AlivaMab Mouse Kappa hybridoma (human V regions, kappa light chain, mouse Fc captured by anti-mouse Fc sensors)) VH: QVQLQQWGAGLLKPSETLSLTCAVYGGSFSGYYWSWIRQPPGKGLEWIGEINHSGSTNYNPSLKSRVTISVVTSKNQFSLKLSSVTAADTAVYYCARVLNWFDPWGQGTLVTVSS VL: DIQMTQSPSSVSASVGDRVTITCRASQDIADWLAWYQQKPGKAPKLLIYAASSFQSGVPSRFSGSGSGTDFTLTISSLQPEDFATYFCQQANSFPYTFGQGTKLEIK | 2.8 | 0.25 | 0.00028 | 100000
75110_07B16A (antibody, V domains shown, Tested as antibody purified from AlivaMab Mouse Kappa hybridoma (human V regions, kappa light chain, mouse Fc captured by anti-mouse Fc sensors)) VH: QVQLQQWGAGLLKPSETLSLTCAVYGGSFSGYYWSWIRQSPGKGLEWIGEINQSGSTNYNPSLKSRVTISVDTSKDQFSLKLSSVTAADTAVYYCARVINWFDSWGQGSLVTVSS VL: DIQMTQSPSSVSASVGDRVTITCRASQGISSWLAWYQQKPGKAPKLLIYDASSFQSGVPSRFSGSGSGTDFTLTISSLQTDDFATYYCQQANSFPYTFGQGTKLEIK | 3 | 0.24 | 0.00043 | 140000
